In patent publication US11793825B2, “Biomarkers for predicting responsiveness to decitabine therapy” (The Regents of the University of Michigan, priority 2014, dated 2023):
Entries after “also recorded” stand apart in the source; their conditions may differ.

What was measured:
CMML patients [1] = assay: FISM clinical trial cohort of CMML patients treated with Decitabine; format: in vivo, human; details: DAC 20 mg/m2/day x 5 days
Procedure: To determine whether particular genetic or epigenetic abnormalities are associated with DMTi sensitivity or resistance in this disease a cohort of primary CMML cases was studied. Bone marrow mononuclear cells (BM MNC) were collected at the time of diagnosis from 40 patients with de novo CMML. All patients included in this study were enrolled in a clinical trial of the Fondazione Italiana per le Sindromi Mielodisplastiche (FISM) and treated with DAC single agent as front-line therapy (20 mg/m^2/day×5 days) and response was evaluated after 6 cycles of treatment. Responsive patients (n=20) were defined as those who achieved either complete remission (CR), marrow complete remission (mCR), partial remission (PR) or hematological improvement (HI), as defined by the 2006 International Working Group (IWG) response criteria in myelodysplasia (see, e.g., Cheson, B. D., Blood. 2006; 108(2):419-425). Patients with either stable or progressive disease (SD and PD, respectively) were considered as having primary resistance to DAC (n=20). […] Using MiSeq to sequence DNA isolated from the diagnostic BM MNC targeted re-sequencing of a panel of genes mutated at frequencies greater than 5% in CMML was performed: SRSF2, TET2, ASXL1, NRAS, DNMT3A, RUNX1, U2AF1, TP53, JAK2, KIT, KRAS, SF3B1, EZH2, IDH1, and IDH2. […]

CMML patients [2] = assay: GFM clinical trial cohort of CMML patients treated with Decitabine; format: in vivo, human; details: DAC 20 mg/m2/day x 5 days
Procedure: In order to independently validate the predictive accuracy of the SVM classifier, a second cohort of patients on which to test its performance was identified. Twenty-eight additional diagnostic CMML specimens from patients enrolled in a clinical trial from the Groupe Francophone des Myelodysplasies (GFM), all of whom had been treated with the same DAC regimen of 20 mg/m^2/day×5 days were collected and subjected to ERRBS (Table 2, Table 3). Specimens in this cohort consisted of sorted monocytes from peripheral blood (PB) and the cohort included 12 responder and 16 non-responder patients. The SVM classifier was applied blindly to these samples, without any prior knowledge of the therapeutic response labels for the cohort. Due to the stochastic nature of ERRBS, the CpG coverage is never identical across all samples, thereby leading to missing values for some regions of interest. In effect, only 6 out of the 21 features were present in all 28 GFM cohort samples. Therefore, an SVM classifier was built on these six shared features by training it on the 39 samples of the FISM cohort and then applying the trained classifier on the GFM cohort. As shown in FIG. 8D and FIG. 11B, despite this limitation the 6-feature classifier was still capable of correctly predicting response for 20/28 patients in the GFM cohort (accuracy=71%). […]

[3] = tested on: primary human CD34+ cells; assay: CD34+ cell liquid culture, live cell number and viability by trypan blue exclusion; format: cell-based; details: 10 nM DAC daily for 3 days, with or without CXCL4/CXCL7 50 ng/mL each
Procedure: CD34+ cells were treated with one dose of CXCL4, CXCL7, or both (50 ng/mL each) or vehicle (PBS/0.1% BSA) and daily doses of 10 nM DAC for 3 days. After 3 days, live cell number (A) and viability (B) were assessed by trypan blue exclusion, and apoptosis (C) was analyzed by Annexin V and propodium iodide staining. The results shown are from one representative experiment out of two independent experiments.
Therefore, it was hypothesized that overabundance of CXCL4 and CXCL7 in the bone marrow microenvironment may act to overcome the effects of DAC. To test this, primary human CD34+ cells were cultured for 3 days in vitro with CXCL4 (50 ng/mL), CXCL7 (50 ng/mL) or a combination of both chemokines in either the presence or absence of low-dose DAC (10 nM) and then plated them in methylcellulose to test their clonogenic potential.
(§1) Cell culture and colony forming assays: CD34+ cells were isolated from cryopreserved BM MNC from femoral head specimens using the Miltenyi Biotec CD34 microbead isolation kit (San Diego, CA) per the manufacturer's instructions. For CMML cells, the cryopreserved BM MNC were rapidly thawed at 37° C. and treated with DNAse to prevent cell clumping. […] Live cell number and viability were determined by trypan blue exclusion. […] Colonies were counted after 12 to 15 days.

[4] = tested on: primary human CD34+ cells; assay: Colony forming assay in methylcellulose; format: cell-based; details: chemokine 50 ng/mL (each) plus 10 nM DAC for 3 days
Procedure: (§2) CD34+ cells were treated with one dose of CXCL4, CXCL7, or both (50 ng/mL each) or vehicle (PBS/0.1% BSA) and daily doses of 10 nM DAC for 3 days. After 3 days of in vitro treatment with DAC, the cells were plated in methylcellulose and incubated for 12-15 days before colonies were counted. Data represent mean+standard deviation (SD). […] Shown in the three panels are the results of three independent experiments. […] CMML MNC were treated in vitro for 72 h with 10 nM DAC alone or in the presence of 50 ng/mL of CXCL4, CXCL7, or both. Data represent mean+standard deviation (SD).
as §1, with “clumping. Cells were plated in pre-stimulation media (IMDM with 20% BIT (Stem Cell Technologies, Vancouver, BC, Canada), IL-6 (20 ng/mL), SCF (100 ng/ml), TPO (100 ng/mL), FLT3L (10 ng/mL); Peprotech, Rocky Hill, N.J.) and recovered overnight.” for “clumping.”

[5] = tested on: primary CMML cells (BM MNC); assay: Viability of primary CMML BM MNC in liquid culture; format: cell-based, human; details: chemokine 50 ng/mL plus 10 nM DAC, 72 h
Procedure: as §2
Finally, the ability of CXCL4 and CXCL7 to induce resistance in primary CMML cells was tested. BM MNC from diagnostic specimens collected from 3 patients known to be sensitive to DAC were placed in liquid culture and treated for 72 h with 10 nM DAC in the presence or absence of 50 ng/mL of CXCL4, CXCL7 or a combination of both. Viability was assessed after 72 hours.
as §1, with “instructions.” for “instructions. For CMML cells, the cryopreserved BM MNC were rapidly thawed at 37° C. and treated with DNAse to prevent cell clumping.”

bone marrow cells = details: in vitro; cited from earlier work

| Molecule | Median Survival (CMML patients [1]; non-responders (n=20)) [months] | Median Survival (CMML patients [1]; responders (n=20)) [months] | Median Survival (CMML patients [2]; non-responders (n=16)) [months] | Median Survival (CMML patients [2]; responders (n=12)) [months] | cell proliferation (live cell number) [3] | effect of chemokine on DAC-induced inhibition of colony formation [4] | effect of chemokine on the DAC-induced decrease in viability of primary CMML cells [5] | chemosensitivity of bone marrow cells to 5-fluorouracil (bone marrow cells) |
| --- | --- | --- | --- | --- | --- | --- | --- | --- |
| Nc1ncn([C@H]2C[C@H](O)[C@@H](CO)O2)c(=O)n1 [DAC, Decitabine] | 13.5 | 26.5 | 14.5 | 39 |  |  |  |  |
| CXCL4: chemokine CXCL4 (also known as PF4), Peprotech, used at 50 ng/mL (protein, UniProt P02776 32-101, looked up) Platelet factor 4: EAEEDGDLQCLCVKTTSQVRPRHITSLEVIKAGPHCPTAQLIATLKNGRKICLDLQAPLYKKIIKKLLES |  |  |  |  | did not affect cell proliferation | did not have a significant impact on DAC-induced colony inhibition | abrogated the effect of DAC; also recorded: this effect was lost | can reduce the chemosensitivity of bone marrow cells to 5-fluorouracil |
| CXCL7: chemokine CXCL7 (also known as PPBP), Peprotech, used at 50 ng/mL (protein, UniProt P02775 59-128, looked up, Neutrophil-activating peptide 2, chemokine CXCL7 (also known as PPBP), Peprotech, used at 50 ng/mL) Neutrophil-activating peptide …: AELRCMCIKTTSGIHPKNIQSLEVIGKGTHCNQVEVIATLKDGRKICLDPDAPRIKKIVQKKLAGDESAD |  |  |  |  | did not affect cell proliferation | did not have a significant impact on DAC-induced colony inhibition | abrogated the effect of DAC; also recorded: this effect was lost | can reduce the chemosensitivity of bone marrow cells to 5-fluorouracil |
